For series [1], the system named is LS174T-PSMA and LS174T wildtype xenografts. As to the kind of experiment: PSMA-N064 blocking experiment, ex vivo biodistribution. Type of series: in vivo, BALB/c nude mice. As to conditions: 0.3 nmol, 10 MBq, i.v., 2 h p.i., n=5. As to the method:
(§1) All animal experiments were approved by the institutional Animal Welfare Committee of the Radboud University Medical Center and were conducted in accordance to the guidelines of the Revised Dutch Act on Animal Experimentation. Animal experiments were performed in 8–10 weeks old male BALB/c nude mice (Janvier). The mice were housed in individually ventilated cages (Blue line IVC, 3–5 mice per cage), under standard non-sterile conditions with cage enrichment present. There was free access to chlorophyll-free animal chow (Sniff Voer) and water. Mice were subcutaneously inoculated with 3.0 × 10^6 LS174T-PSMA cells in the right flank and 1.5 × 10^6 LS174T WT cells in the left flank (diluted in 200-µl RPMI 1640 medium). When xenografts were approximately 0.5 cm^3 (10–14 days after injection), mice were block-randomized into groups based on tumor size. The researchers were not blinded for the experimental groups.
Five mice per group were intravenously injected with either 0.1 nmol PSMA-N064, 0.3 nmol PSMA-N064, 0.1 nmol PSMA-N064 + 10 nmol unlabeled PSMA-617 (100x excess) or PSMA-617. Ligands were labeled with 10 MBq ^111In in PBS+0.5% (w/v) BSA. For the ex vivo biodistribution four groups (one for each experimental condition) of five mice were included. Two hours p.i., all mice from all groups were euthanized by CO2/O2-asphyxiation and relevant tissues were dissected, weighed and measured for radioactivity in a gamma-counter (2480 WIZARD^2 Automatic Gamma Counter, PerkinElmer).

Series [2] relates to LS174T-PSMA cells. Set-up: method as in PMID 33408764. As to conditions: head-to-head comparison; cited from earlier work.
Series [3] has as its system LS174T-PSMA cells. As to the kind of experiment: in vitro binding and internalization assay. Format: cell-based, human. As to conditions: for PSMA-specific membrane binding and internalization: corrected for non-specific binding (2-PMPA). As to the method: The binding and internalization characteristics of the ligands were determined using LS174T-PSMA cells. Cells were cultured to confluency in 6-well plates followed by incubation with 50,000 counts per minute of ^111In-labeled ligand (0.1–0.25 pmol/well) in 1-ml RPMI + 0.5% BSA (37 °C, 2 h). Non-specific binding was determined by coincubation with 2(phosphonomethyl)-pentane-1,5-dioic acid (2-PMPA, 21.57 µM). PSMA-specific binding was defined as total binding minus the non-specific binding. To retrieve the membrane-bound fraction, cells were washed twice with PBS and incubated for 10 min at 0 °C with acid buffer (154-mM NaCl, 0.1 M acetic acid, pH 2.6). After incubation, the membrane-bound fraction was collected. Then, cells were washed and lysed with 0.1 M NaOH, and the cell lysate (intracellular activity) was collected. Intracellular and membrane-bound activity fractions were measured in a gamma-counter (2480 WIZARD^2 Automatic Gamma Counter, PerkinElmer).

For series [4], the system named is LS174T-PSMA and LS174T wildtype xenografts. Briefly: ex vivo biodistribution of 111In-labeled ligands. Set-up: species or system BALB/c nude mice. As to conditions: 0.3 nmol, 2 h p.i. As to the method: as §1
(§2) Mice were intravenously injected with 0.3 nmol PSMA ligand, labeled with 10 MBq ^111In (molar activity 33.3 MBq/nmol) in PBS + 0.5% (w/v) BSA. For the ex vivo biodistribution, five groups (one group for each ligand) of four mice were included. Two hours p.i., all mice were euthanized by CO2/O2-asphyxiation. For two mice of each group (2 mice/ligand), background-subtracted fluorescence images were acquired with the IVIS imaging system (Xenogen VivoVision IVIS Lumina II, PerkinElmer), with a 640-nm excitation filter and a Cy5.5 emission filter and an acquisition time of 10 s. Next, µSPECT/CT imaging was performed in the same two mice per group, with a 1.0-mm diameter pinhole mouse collimator tube (U-SPECT II, MILabs). Mice were scanned for 30 min followed by a CT scan for anatomical reference (spatial resolution 160 μm, 615 μA, 65 kV). MILabs reconstruction software was used to reconstruct the µSPECT/CT scans, via an ordered-subset expectation maximization algorithm, energy windows 154–188 keV and 220–270 keV, 3 iterations, 16 subsets, and voxel size of 0.75 mm. SPECT/CT maximum intensity projections (MIPs) were created using the Inveon Research Workplace software (Siemens Preclinical Solutions, version 4.1). NIR fluorescence images were analyzed using Living Image software (PerkinElmer, version 4.2). After imaging, relevant tissues were dissected, weighed, and measured for radioactivity in a gamma-counter (2480 WIZARD^2 Automatic Gamma Counter, PerkinElmer). In addition, a blocking experiment with PSMA-N064 and PSMA-617 was performed. Full experimental procedures and results can be found in the supplementary data (Page 5, Supplementary Fig. 3).

Series [5] can be described thus: ex vivo biodistribution of 111In-labeled ligands. Conditions: male, BALB/c nude, mouse, iv, 0.3 nmol, total radioactivity, 2 h p.i.; for tissue uptake at 2 h: 10 MBq/mouse, i.v. Further details: species or system BALB/c nude mice. As to the method:
as §1, §2

The test system of series [6] is LS174T-PSMA and LS174T wildtype xenografts. As to the kind of experiment: µSPECT/CT and NIR fluorescence imaging. Format: in vivo, BALB/c nude mice. Conditions: 0.3 nmol, 10 MBq/mouse, 2 h p.i.
Text: as §2, with “SPECT/CT maximum intensity projections (MIPs) were created using the Inveon Research Workplace software (Siemens Preclinical Solutions, version 4.1).” left out, “In addition, a blocking experiment with PSMA-N064 and PSMA-617 was performed. Full experimental procedures and results can be found in the supplementary data (Page 5, Supplementary Fig. 3).” left out

The mark [7] stands for this setting: LS174T wildtype tumor, n=4, read-out: Biodistribution Tumor- LS174T.
[8] abbreviates: LS174T-PSMA tumor, n=4, read-out: Biodistribution Tumor+ LS174T-PSMA.
[9] abbreviates: adrenals, n=4, read-out: Biodistribution Adrenals.
The mark [10] stands for this setting: blood, n=4, read-out: Biodistribution Blood.
[11] abbreviates: bone marrow, n=4, read-out: Biodistribution Bone marrow.
Where [12] appears, read: bone, n=4, read-out: Biodistribution Bone.
Where [13] appears, read: duodenum, n=4, read-out: Biodistribution Duodenum.
The mark [14] stands for this setting: heart, n=4, read-out: Biodistribution Heart.
[15] abbreviates: kidney, n=4, read-out: Biodistribution Kidney.
[16] abbreviates: liver, n=4, read-out: Biodistribution Liver.
[17] abbreviates: lung, n=4, read-out: Biodistribution Lung.
Setting [18] is: muscle, n=4, read-out: Biodistribution Muscle.
Where [19] appears, read: pancreas, n=4, read-out: Biodistribution Pancreas.
The mark [20] stands for this setting: prostate, n=4, read-out: Biodistribution Prostate.
Where [21] appears, read: salivary glands, n=4, read-out: Biodistribution Salivary glands.
Where [22] appears, read: spleen, n=4, read-out: Biodistribution Spleen.
The mark [23] stands for this setting: stomach, n=4, read-out: Biodistribution Stomach.
The mark [24] stands for this setting: tumor (LS174T-PSMA xenograft) / blood, read-out: Tumor/Blood ratio.
Setting [25] is: tumor (LS174T-PSMA xenograft) / kidney, read-out: Tumor/Kidney ratio.
[26] abbreviates: tumor (LS174T-PSMA xenograft) / liver, read-out: Tumor/Liver ratio.
The mark [27] stands for this setting: tumor (LS174T-PSMA xenograft) / spleen, read-out: Tumor/Spleen ratio.

Read-outs that look alike come from different tables or passages of the source.

Regarding `O=C(O)CC[C@H](NC(=O)N[C@@H](CCCCNC(=O)[C@H](Cc1ccc2ccccc2c1)NC(=O)[C@H]1CC[C@H](CNC(=O)CN2CCN(CC(=O)O)CCN(CC(=O)O)CCN(CC(=O)O)CC2)CC1)C(=O)O)C(=O)O` [PSMA-617], the “Biodistribution Tumor+ LS174T-PSMA” value in series [1] amounted to 19 ± 2 %ID/g. The internalization ratio in the series on LS174T-PSMA cells [2] is 46%.
Regarding `C[Si](C)(CCC[N+](CCCS(=O)(=O)[O-])(CCCS(=O)(=O)O)CCCS(=O)(=O)O)O[Si]1(O[Si](C)(C)CCC[N+](CCCS(=O)(=O)[O-])(CCCS(=O)(=O)O)CCCS(=O)(=O)O)n2c3c4ccccc4c2N=C2N=C(N=c4c5c(OCCCOC(=O)NCCCCCC(=O)NCCCC[C@H](NC(=O)CN6CCN(CC(=O)O)CCN(CC(=O)O)CCN(CC(=O)O)CC6)C(=O)NCCCC[C@H](NC(=O)[C@H](CCC(=O)O)NC(=O)c6cccnc6)C(=O)NCc6ccc(C(=O)N[C@@H](Cc7ccc8ccccc8c7)C(=O)NCCCC[C@H](NC(=O)N[C@@H](CCC(=O)O)C(=O)O)C(=O)O)cc6)cccc5c(n41)=NC1=NC(=N3)c3ccccc31)c1ccccc12` [PSMA-N02], the “internalization percentage (percentage of cell-associated ligand that was internalized)” value in the series on LS174T-PSMA cells [3] (37 °C, 2 h) was 73–90%. Also, in the series on LS174T-PSMA cells [3], the “PSMA-specific membrane binding and internalization” value was “highest membrane-bound and internalized fraction”. Further, the Tumor/Negative tumor ratio in series [4] was 42.2 ± 16.4. For the same compound, in series [4], the Tumor/Prostate ratio came out at 46.9 ± 13.8. Besides, in series [4], the Tumor/Salivary gland ratio came out at 39.2 ± 3.7. For the same compound, the tissue uptake at 2 h is 0.6 ± 0.2 %ID/g in series [5] (setting [7]); 23 ± 2 %ID/g in series [5] (setting [8]); 1.2 ± 0.2 %ID/g in series [5] (setting [9]); 0.5 ± 0.01 %ID/g in series [5] (setting [10]); 0.1 ± 0.1 %ID/g in series [5] (setting [11]); 0.5 ± 0.04 %ID/g in series [5] (setting [12]). Also, the tissue uptake at 2 h in series [5] (setting [13]) was 0.4 ± 0.05 %ID/g; in series [5] (setting [14]), 0.4 ± 0.05 %ID/g; in series [5] (setting [15]), 99 ± 12 %ID/g; in series [5] (setting [16]) it was 1.1 ± 0.1 %ID/g; in series [5] (setting [17]), 1 ± 0.3 %ID/g; in series [5] (setting [18]), 0.2 ± 0.04 %ID/g. Moreover, the tissue uptake at 2 h was 0.3 ± 0.05 %ID/g in series [5] (setting [19]); 0.5 ± 0.1 %ID/g in series [5] (setting [20]); 0.6 ± 0.1 %ID/g in series [5] (setting [21]); 1.6 ± 0.2 %ID/g in series [5] (setting [22]); 0.5 ± 0.1 %ID/g in series [5] (setting [23]). Moreover, the tissue to tissue ratio at 2 h was 43.1 ± 4.1 in series [5] (setting [24]), 0.3 ± 0.01 in series [5] (setting [25]), 21.6 ± 1.6 in series [5] (setting [26]) and 14.3 ± 2.5 in series [5] (setting [27]).
Regarding `CC(=O)N[C@@H](CCCCNC(=O)CCCCCNC(=O)[C@H](CCC(=O)O)NC(=O)[C@H](CCC(=O)O)NC(=O)[C@H](Cc1ccccc1)NC(=O)[C@H](CCCCNC(=O)CCCCCNC(=O)OCCCOc1cccc2c3n4c(c12)=NC1=NC(=Nc2c5ccccc5c(n2[Si]4(O[Si](C)(C)CCC[N+](CCCS(=O)(=O)[O-])(CCCS(=O)(=O)O)CCCS(=O)(=O)O)O[Si](C)(C)CCC[N+](CCCS(=O)(=O)[O-])(CCCS(=O)(=O)O)CCCS(=O)(=O)O)N=C2N=C(N=3)c3ccccc32)c2ccccc21)NC(=O)CCC(C(=O)O)N1CCN(CC(=O)O)CCN(CC(=O)O)CCN(CC(=O)O)CC1)C(=O)O` (stereo partly drawn) [PSMA-N064inc, reference compound], the “renal ligand accumulation on images” value in series [6] was “lowest”. Further, the “PSMA-specific membrane binding and internalization” value in the series on LS174T-PSMA cells [3] was “no binding and internalization”. Also, in series [4], the Tumor/Negative tumor ratio came to 1.1 ± 0.5. In series [4], the Tumor/Prostate ratio was 1.3 ± 0.9. Besides, the Tumor/Salivary gland ratio in series [4] worked out at 1.6 ± 0.5. Moreover, the tissue uptake at 2 h in series [5] (setting [7]) was determined as 0.4 ± 0.1 %ID/g; in series [5] (setting [8]), 0.5 ± 0.2 %ID/g; in series [5] (setting [9]), 0.7 ± 0.6 %ID/g; in series [5] (setting [10]) it was 0.3 ± 0.2 %ID/g; in series [5] (setting [11]) it was 0.1 ± 0.03 %ID/g; in series [5] (setting [12]) it was 0.2 ± 0.1 %ID/g. Besides, the tissue uptake at 2 h is 0.2 ± 0.04 %ID/g in series [5] (setting [13]); 0.3 ± 0.1 %ID/g in series [5] (setting [14]); 47 ± 6 %ID/g in series [5] (setting [15]); 0.6 ± 0.1 %ID/g in series [5] (setting [16]); 0.3 ± 0.1 %ID/g in series [5] (setting [17]); 0.1 ± 0.1 %ID/g in series [5] (setting [18]). Also, the tissue uptake at 2 h in series [5] (setting [19]) is 0.1 ± 0.04 %ID/g; in series [5] (setting [20]), 0.6 ± 0.7 %ID/g; in series [5] (setting [21]) it was 0.3 ± 0.05 %ID/g; in series [5] (setting [22]), 0.2 ± 0.04 %ID/g; in series [5] (setting [23]), 0.4 ± 0.1 %ID/g. For the same compound, the tissue to tissue ratio at 2 h was 1.5 ± 0.6 in series [5] (setting [24]), 0.01 ± 0.003 in series [5] (setting [25]), 0.7 ± 0.2 in series [5] (setting [26]) and 2.1 ± 0.5 in series [5] (setting [27]).

The values above are taken from PMC9165289, “Theranostic PSMA ligands with optimized backbones for intraoperative multimodal imaging and photodynamic therapy of prostate cancer” (European Journal of Nuclear Medicine and Molecular Imaging, 2022).
